Experimental data published in patent publication US20220153832A1 (PIONYR IMMUNOTHERAPEUTICS, published 2022).
Where a chain is given by its changes, count along the chain named. Values belong to the binder of their own block, whether it stands above or below them.

How the values were obtained:
[1] = target: T1, Human Macrophage Receptor with Collagenous Structure (MARCO), full length, on cells (human, UniProt Q9UEW3 1-520); test: cell-based competition with AF488 E. coli binding to cells expressing MARCO
T1 construct: the cell type is named under assay; also called huMARCO; HuMARCO
T1 sequence: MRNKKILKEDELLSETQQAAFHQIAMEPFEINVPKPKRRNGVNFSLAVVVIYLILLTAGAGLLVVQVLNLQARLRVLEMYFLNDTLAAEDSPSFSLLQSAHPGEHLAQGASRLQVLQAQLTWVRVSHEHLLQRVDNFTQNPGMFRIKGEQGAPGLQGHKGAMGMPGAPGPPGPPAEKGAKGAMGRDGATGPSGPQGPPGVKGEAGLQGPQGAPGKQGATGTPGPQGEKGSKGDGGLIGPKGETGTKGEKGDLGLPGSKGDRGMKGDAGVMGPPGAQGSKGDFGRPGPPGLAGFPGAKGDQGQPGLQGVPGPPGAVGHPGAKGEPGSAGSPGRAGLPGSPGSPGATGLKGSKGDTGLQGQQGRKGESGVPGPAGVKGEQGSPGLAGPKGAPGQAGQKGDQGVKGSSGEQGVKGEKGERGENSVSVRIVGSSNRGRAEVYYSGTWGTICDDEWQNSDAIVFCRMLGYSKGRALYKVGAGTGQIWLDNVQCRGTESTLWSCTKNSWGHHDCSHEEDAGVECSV
Protocol: Zombie NIR viability dye (BioLegend), prepared by diluting the stock 1000-fold in D-PBS, was added to the cells and incubated for 10 min at RT in the dark. The reaction was quenched by adding 1 m of 4× Staining buffer (2% FBS in DBPS containing Ca2+), followed by centrifugation at 400×g for 5 min at 4° C. Cells were then plated in V-shaped 96 well plates at a density of 100,000 cells. A488-fluorescently labeled bacteria (E. coli from Invitrogen) was added at 10 μg/ml with the anti-human MARCO antibodies of interest for a 30 min incubation at 37 C. Plates were then washed twice followed by resuspension in 100 ul of staining buffer for acquisition on the flow cytometer (Attune NxT, Life Technologies). Flow cytometry data were analyzed using FlowJo software (version 10.6.1) and data were processed and further analyzed in Microsoft Excel and GraphPad Prism software (version 8).

[2] = target: T2, N-terminal his-tagged mouse MARCO protein, recombinant (mouse, UniProt Q60754 150-518); test: Biacore; antigen construct not stated
T2 construct: The entry holds the His tag, the CLD and the SRCR domain; also called mMARCO (RG3016); PI-RG-3016
T2 sequence: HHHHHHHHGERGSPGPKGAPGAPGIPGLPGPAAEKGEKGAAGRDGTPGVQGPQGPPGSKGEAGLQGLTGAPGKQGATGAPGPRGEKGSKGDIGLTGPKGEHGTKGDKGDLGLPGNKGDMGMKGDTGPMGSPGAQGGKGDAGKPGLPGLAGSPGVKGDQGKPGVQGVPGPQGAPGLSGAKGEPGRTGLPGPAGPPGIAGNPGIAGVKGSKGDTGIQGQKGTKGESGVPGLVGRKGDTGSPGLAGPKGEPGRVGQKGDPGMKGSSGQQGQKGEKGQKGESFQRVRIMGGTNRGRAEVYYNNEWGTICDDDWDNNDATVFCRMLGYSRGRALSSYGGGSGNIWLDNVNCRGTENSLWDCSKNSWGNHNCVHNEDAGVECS

[3] = target: T3, Mouse MARCO, full length, on cells (mouse, UniProt Q60754 1-518); test: flow cytometry, 293T cells expressing mouse MARCO
T3 construct: whole, on cells; the cell type is named under assay; also called muMARCO; MuMARCO
T3 sequence (looked up): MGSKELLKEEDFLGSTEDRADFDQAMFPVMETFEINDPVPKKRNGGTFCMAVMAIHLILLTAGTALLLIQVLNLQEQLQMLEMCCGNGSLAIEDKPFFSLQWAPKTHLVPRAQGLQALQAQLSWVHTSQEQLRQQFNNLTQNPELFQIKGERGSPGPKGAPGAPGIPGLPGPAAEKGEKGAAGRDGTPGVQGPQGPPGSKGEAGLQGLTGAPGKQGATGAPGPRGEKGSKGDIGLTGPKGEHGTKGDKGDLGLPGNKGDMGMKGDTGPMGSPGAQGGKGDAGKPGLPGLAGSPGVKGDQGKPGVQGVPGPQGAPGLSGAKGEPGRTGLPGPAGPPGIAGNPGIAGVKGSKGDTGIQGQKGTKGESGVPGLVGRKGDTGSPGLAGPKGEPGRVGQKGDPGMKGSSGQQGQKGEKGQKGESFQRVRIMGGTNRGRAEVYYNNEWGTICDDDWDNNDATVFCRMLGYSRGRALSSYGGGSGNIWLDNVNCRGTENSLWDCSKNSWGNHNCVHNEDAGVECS
Protocol: Supernatants were removed and cell pellets were resuspended in Ca²⁺+ and Mg²⁺+ Dulbecco's phosphate-buffered saline (D-PBS) at 1×10⁶ cells/ml. 100,000 cells/well were plated onto U-bottom 96-well plates for staining and all centrifugation steps were performed at 1500 rpm at 4° C. for 5 min and samples were kept protected from light throughout the protocol. Cells were pelleted and resuspended in 100 μl of Zombie NIR viability dye (BioLegend) prepared by diluting Zombie NIR dimethyl sulfoxide (DMSO) stock 1000-fold in D-PBS. […] Flow cytometry data were analyzed using FlowJo software (version 10.6.1) and data were processed and further analyzed in Microsoft Excel and GraphPad Prism software (version 8). Half-maximal effective concentrations (EC₅₀) were calculated based on geometric mean fluorescence intensities (gMFI). In case when the plates were not able to be analyzed on the cytometer, cells were pelleted after the washes and fixed in 100 μl of 2% paraformaldehyde (PFA), prepared by diluting the 16% (w/v) stock (Thermo Fisher) in DPBS, for 15 min at RT. […]

EC50 [1]: 0.44 nM
B1: PI-3010-AB (antibody, human IgG1, kappa)
heavy: not shown
light: DIQMTQSPASLSTSLGETVSIECLASEGISNDLAWYQQKSGKSPQLLIYAASRLQDGVPSRFSGSGSGTRYSLKISGMQPEDEADYFCQQSYKYPLTFGSGTKLEIKRTVAAPSVFIFPPSDEQLKSGTASVVCLLNNFYPREAKVQWKVDNALQSGNSQESVTEQDSKDSTYSLSSTLTLSKADYEKHKVYACEVTHQGLSSPVTKSFNRGEC

koff [2]: 2.11e-05 s⁻¹
kon [2]: 191000 M⁻¹ s⁻¹
EC50 [3]: 0.47 to 0.75 nM
B2: PI-HX-3021 (antibody, V domains shown)
VH: QVRLVQSGTALVRPGASVRMSCTASGYSFTDYWVSWVKQSHGQSLEWIGEIYPNSGTTNFNEKFEGKATLTVDKSTSTAYMELSRLTSEDSAIYYCTGEGTFDYWGQGVMVTVSS
VL: EIVLTQSPTTMAASPGEKVTITCRPSSSLSNMHWFQQKSGTSPKPWIYDTSKLASGVPDRFSGSGSGTSYSLTISSMEAEDAATYYCLQRSSYPPTFGAGTKLELK
notes: Rat IgG2a hybridoma antibody; Not the effector dead PI-3021; also called PI-3007 (name of the recombinant form)

koff [2]: 1.27e-06 s⁻¹
kon [2]: 184000 M⁻¹ s⁻¹
EC50 [3]: 0.36 to 0.59 nM
B3: PI-HX-3016 (antibody, rat IgG1, V domains shown)
VH: EVQLVESGGGLVKPGASLKLSCVASGFTFSDDWMNWVRQTPGKAMEWIGDIKYDGSYTNYVPSLKNRLTISRDNAKNTLYLQMTNVRSEDTATYYCTSGGVFDYWGQGVMVTVSS
VL: B2 VL with T5S, P25A, L29V, N31Y, S92G, L105V
notes: Rat IgG1 hybridoma antibody

EC50 [1]: 0.5 nM
B4: PI-3015-AB (antibody, human IgG1, kappa)
heavy: not shown
light: DIQMTQSPSSLSASVGDRVTITCRASEGISNDLAWYQQKPGKAPKLLIYAASRLQSGVPSRFSGSGSGTDYTLTISSMQPEDFATYYCQQSYKYPLTFGQGTKLEIKRTVAAPSVFIFPPSDEQLKSGTASVVCLLNNFYPREAKVQWKVDNALQSGNSQESVTEQDSKDSTYSLSSTLTLSKADYEKHKVYACEVTHQGLSSPVTKSFNRGEC
